Source: patent US9518268B2, “Drought tolerant transgenic plants and method of making same” (PURDUE RESEARCH FOUNDATION, priority 2013, dated 2016)

B1: PYL13: Arabidopsis thaliana PYR/PYL/RCAR family protein PYL13, SEQ ID NO: 1 (protein, listed as Arabidopsis thaliana)
chain: MESSKQKRCRSSVVETIEAPLPLVWSILRSFDKPQAYQRFVKSCTMRSGGGGGKGGEGKGSVRDVTLVSGFPADFSTERLEELDDESHVMVVSIIGGNHRLVNYKSKTKVVASPEDMAKKTVVVESYVVDVPEGTSEEDTIFFVDNIIRYNLTSLAKLTKKMMK

Test system: RD29B-LUC expression
Assay: ABA-independent induction of RD29B-LUC in triple mutant protoplasts
Type: cell-based, Arabidopsis
Settings: abi1/hab1/abi2 protoplasts
Source text: The basal RD29B-LUC expression level was elevated in protoplasts co-transfected with PP2CA-PYL13, HAI2-PYL13, or HAI3-PYL13, which is consistent with PYL13 inhibition of these PP2Cs in an ABA-independent manner in vivo (FIG. 4A). To exclude interference by endogenous PP2Cs in wild type protoplasts and to assess the ABA-independent selective inhibition of PP2Cs by PYL13, PYL13 was co-expressed with PP2CA, HAI1, HAI2, and HAI3 in abi1/hab1/abi2 triple mutant protoplasts, as shown in FIG. 4C. After transfection, protoplasts were incubated for 4.5 h under light in the absence of ABA. Error bars indicate s.e.m. (n=3).
Expression of RD29B-LUC in the absence of ABA was increased in the transfections of PYL9-K63Q/L89F or PYL11-K39Q/L66F together with SnRK2.6 and ABF2 to a considerable level. The ABA-independent RD29B-LUC expression is about 70% of that in the presence of 5 μM ABA in the transfection of PYL11-K39Q/L66F, while about 30˜60% in the transfection of PYL9-K63Q/L89F (FIG. 4). […] RD29B-LUC was used as the ABA-responsive reporter. ZmUBQ-GUS was used as the internal control. After transfection, protoplasts were incubated for 4.5 h under light in the absence of ABA (open bars) or in the presence of 5 μM ABA (closed bars). Error bars indicate s.e.m. (n=4).
Assays for transient expression in protoplasts were performed as described (Fujii et al., 2009). Leaf strips (0.5 mm) were cut from the middle part of second leaves using a razor blade (VWR SCIENTIFIC) and submerged in 15 mL of enzyme solution containing 20 mM MES, pH 5.7, 1.5% (w/v) cellulase R10 (YAKULT PHARMACEUTICAL INDUSTRY), 0.4% (w/v) macerozyme R10 (YAKULT PHARMACEUTICAL INDUSTRY), 0.4 M mannitol, 20 mM KCl, 10 mM CaCl2, 1 mM 2-mercaptoethanol, and 0.1% BSA. The leaves were vacuum infiltrated for 30 min and then incubated without shaking for 3 h in the dark at room temperature. The enzyme/protoplast solution was diluted with 15 mL of W5 solution (2 mM MES, pH 5.7, 154 mM NaCl, 125 mM CaCl2, and 5 mM KCl) and filtered with a 75-μm nylon mesh. Protoplasts were centrifuged at 100 g for 2 min in a 30-mL round-bottomed tube (SARSTEDT), resuspended in W5 solution, and rested for 30 min at room temperature.
Before transfection, protoplasts were changed into MMg solution (4 mM MES, pH 5.7, 0.4 M mannitol, and 15 mM MgCl2) to a final concentration of 2×10^5 cells per microliter. Protoplasts (100 μl) were gently and thoroughly mixed with the plasmid DNA mixture (less than 10 μl) and 110 μl of PEG solution (40% w/v PEG-4000, 0.2 M mannitol, and 100 mM CaCl2), incubated for 5 min, washed with 440 μl of W5 solution, and resuspended in 50 μl of WI solution (4 mM MES, pH 5.7, 0.5 M mannitol, and 20 mM KCl). After transfection, protoplasts were incubated in WI solution without ABA or with 5 μM ABA under light. The protoplasts were harvested after 4.5 h, frozen in liquid N2, and stored at −80° C.
The frozen protoplasts were resuspended in 50 μl of protoplast lysis buffer containing 2.5 mM Tris-phosphate, pH 7.8, 1 mM DTT, 2 mM DACTAA, 10% (v/v) glycerol, and 1% (v/v) Triton X-100. Protoplast lysates (20 μl) were mixed with 100 μl of LUC mix (PROMEGA), and LUC luminescence was measured with a plate reader (Wallac VICTOR2 plate reader).
Protoplast lysates (2 μl) were mixed with 10 μl of 4-methylumbelliferyl β-D-glucuronide (MUG) substrate mix (10 mM Tris-HCl, pH 8, 1 mM MUG [GOLD BIOTECHNOLOGY], and 2 mM MgCl2). After the mixture was kept for 30 min at 37° C., 100 μl of 0.2 M Na2CO3 was added, and GUS activity was measured using the plate reader with the excitation filter at 355 nm and the emission filter at 460 nm.
All the plasmids used in this assay were purified with the QIAGEN Plasmid Maxi Kit or the QIAGEN Plasmid Midi Kit. The quality of plasmid DNA is important for high transfection efficiency. RD29B::LUC (7 μg of plasmid per transfection) was used as the ABA-responsive reporter. ZmUBQ::GUS (2 μg of plasmid per transfection) was used as the internal control. […]

| Molecule | expression of RD29B-LUC in the absence of ABA (with PP2CA only, SnRK2.6 and ABF2 (control transfection)) | expression of RD29B-LUC in the absence of ABA (with HAI1, SnRK2.6 and ABF2) | expression of RD29B-LUC in the absence of ABA (with PP2CA, HAI2, or HAI3, SnRK2.6 and ABF2) |
| --- | --- | --- | --- |
| PYL2: Arabidopsis thaliana PYL family ABA receptor protein PYL2, AT2G26040 | an increase was not observed |  |  |
| B1 |  | an increase was not observed | increased |
